{
  "source": "the NTF2 design screens of Basanta et al. (2020)",
  "data": [
    {"assay": "protease stability score; higher = more stable; yeast display proteolysis, trypsin and chymotrypsin;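 also: relative to predicted unfolded state with 0 unfolded-like and 1 meaning tenfold more protease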", "values": [
      {"sequence": "REDEEQMSRFIKEMIHLLRTGDEDRLHELIDPHTRLDFDGKEIHGREEWSQFLKEIRFRRFEVKDFEIVNGVANVDGKMHGEFDGQRFTTRVHIYNVKINGRWVHKWEEIG", "protease stability score": 1.32},
      {"sequence": "SEEKEMVLHLAELLIELEFTGNWEKLFELADPNVLSRINGRELHGMEKHRKHWEEIRIHRVHIEKVHIETIGDKAKLDIHGRLDGEVNGVRDISESVIHIVSRKYDGRWIVKSIEIRVH", "protease stability score": 1.22},
      {"sequence": "HEDEDILREALKTLRHSIQTGDEDLLRELMDPNVRLETEHERLHGWEYVSKFMMDLYKRYDHMEYTVHDYKVYGDFLRVDVQLDVKQGEKDDVISTHMLALKFDGKWHIKKIIIE", "protease stability score": 1.56},
      {"sequence": "DEETELDERVIKLLIEALKTGDEHLKERMMDPRVRFLIDGVDLIGREWAFHIARHWRIHIHHIEHKSISRQGDYLRVNGKEDGVEEFDGRRVEKEVSSHRLILKIDGRWVLTHVELR", "protease stability score": 1.28},
      {"sequence": "SEDERFWVERLEEVLRAILTGDEDRIRELADPDVRVRYGDKELHGWKDLHEFMEFFKNVRINVRHVRNQGDKQEVDSEFTFEGRRHETELRLVVINGRVRHIEIIIR", "protease stability score": 1.41},
      {"sequence": "DEQEKEAKRVVEEILEILLTGDFESFLRNADPNVRIIIGDKDYWGREHTKRLLTDWRREMRVKHIDVRDIEVQGNKVKLHLESDLEINGRRTRTEMEIIVVTFNGRFESLEIRTV", "protease stability score": 1.75},
      {"sequence": "TEERKEMEEAWDRFVHNIHTGDEHSLLKLVDPHVRVQIGDKEVHGWRYLLQLLRDIITKVKNLTVDLRIEDERMIGNYIELEVILVINFENRYHFIRYHVRHEKVDGKWHLKEISRD", "protease stability score": 1.08},
      {"sequence": "HEDEKIARELTELLLHHFHTGNEESLSKLMDPNVRVIAENHELHGMEKKIEKNRKYLKDLGVDHFSFELRHLDLQGDKARVEGIEHWTINGQHHERHMVLHIVVVNGRLQESSIEIR", "protease stability score": 0.929},
      {"sequence": "SEVEEFVKRVIHLFHKAFLTGDEHTLIELIDPNARYDVDGRDVHGREIIVEFISTMWRDRGIRIKHVHIEERRYINGRIEIHSKIDVTIGDKREHLETSMIWVKINGQWFIEILIVR", "protease stability score": 0.233},
      {"sequence": "RKEEDEARKFLHTYIELMRTGDEDNLKEFVDPHVRLEVGDKRVVGWDRYVENVVELIEKVPNLRIHIDSVRAIGNWLHVDGTLIQGDKHREIHLHLQKIDGRWILTHQHVR", "protease stability score": 1.34},
      {"sequence": "NEDERETELFLRLFRRALLTGDWRAIEDLMDPNVMIHVNGREFHGREQYYKIVMNELTHWRLHHTKIDDIRLYDGVLRVQLRLQGEINGREDFLHLHVIIEKIDGKWIFRSVEIR", "protease stability score": 1.91},
      {"sequence": "DEEEKKAQEFLEFVMSALETGDEETLKRLMDPRVRLRFDGRDIHGREEVLRVWIEVLKRADHVRVEIRDMEFQGDKLHIHFELILHIGDKENHIEIRQNVFKVDGQWIIKEHEIR", "protease stability score": 2.22},
      {"sequence": "SEEHEKTRRALELWIDVMKTGDPEHILRLLDPHTKIHQGEFELHGRHDAHRWLSRLGVERIHFELKDVRYFDGQILVDGVIFFNGRESRVNVVAMKVNGRWFVDSLEIQ", "protease stability score": 0.755},
      {"sequence": "DEQEEHVEKLVHLLLRRFKTGDEEFWRRLADPRTRLHVGDKHHHGRETFMKVFRHLIEDLGIDHRIEKHFEVINGVLHIHQIIVVDGQEFELRIHVFVVDGKVKSIDVSIHTR", "protease stability score": 0.896},
      {"sequence": "SDMDEMISRFRREVEHSMQTGDERFDHEMADPHARFWINGVLFHGRHALEMWKEELGVDNFKIRHIHIRDEKIQGNKITLDVEYHLLVNGQQVDLRVILIYRKVNGKWTLEEERLV", "protease stability score": 0.851},
      {"sequence": "TEDERDAKRMAETMVKLWETGDWRTLFELADPDMRFEYGDKRFHGREKLIKVLRDIFERLGIDHSHVRDFKIIFVGEKVEVRLDIETHFDGRTEEFHIEINVRKIDGRWRLKSMHIEIR", "protease stability score": 2.02},
      {"sequence": "DEDEKRARHALTLLVHSFLTGNFEFTTELLDPHYKLHVGEKTYIGRKAIKEWIREFHERIPNIKLKDITIEHMTWVGEKVVVHSRVEGEVDGKEMFLQVEIIMEKVNGRWIVHSIHMN", "protease stability score": 2.01},
      {"sequence": "TEEEHWALHLLERILHHMLTGNESFIKHLFDPDTRWEVNGVENIGMERHSKLFLHMRIESIEIRSIHVRIVGEYIHIDVEIDIRGIVNGQRVEYHKKIHVIISKVNGRWHIKHYHESDE", "protease stability score": 1.22},
      {"sequence": "SEDEEAIRHALRIFEEVLQTGDEHSIENLFDPNTRIDINGKHLHGWHKLEEWLSRFDHLEVHVHIHSSNVFDGRIHNDTRVKMHLYINGKIIELHQETHIISKKVNGRWYVKMIIIR", "protease stability score": 1.17},
      {"sequence": "SEDEHFFRLVTRWIVRALLTGDEDSLQELLDPHVKFEINGRDFHGRESVYRAVLEIRRNDLRMKREHYHVQGDFVRSELTIEEELVIGDKIVTIESRLLLIILKINGRWYLEKMEVHFK", "protease stability score": 1.41},
      {"sequence": "SEEEHKIRKLLEDLANFIRTGDEHRINELLDPNVMIDINGQKFHGRESLETVYHEWLKRVDHIEDLRIDDISKQGEFLIMHANMTLRQGDKHHRENVHIIILKVDGRWIMTSILFR", "protease stability score": 2.2},
      {"sequence": "DELEELLQRAIKMFKDTNETGDEETLEKLLDPNVRYQVGDKEFHGREAIHVIFRRADHWKEMRIRSFRVYDGRAELDVEEVIFYNGVEIRTRTRIHFRKVDGRWYVHSIEIS", "protease stability score": 1.53},
      {"sequence": "DEEEENMRIAFKLLIEMHRTGDPEEHLELFDPHVRSIIGDKEYHGWEEYMRWIQHARVKELKLDSHRVYNGRVELDVRINVDVNGREIDREVHIIAEKVNGRWHFKSVRVL", "protease stability score": 1.41},
      {"sequence": "DDHRDRLEHHASEFITAMLTGNWERLYQLVDPHVRLEIHVNGRKQHRVGREEFWTQWQKFVEDFGIDHSHLDRMEVIGNKMHAEFNIRVGDKRFILELHVIIVNGRISEVRVDFR", "protease stability score": 2.15},
      {"sequence": "DEREKEALDIAREVLHNIMTGDWERLSQLLDPNTRFHEHWNGVHIDLHGRETVSHLLFRHVKHIRIEHVHLEDMVVIGEKAIIHSRRHIEIDGKHMTHHVLLYLLVIDGKIKDVRLHLE", "protease stability score": 0.869}
    ]}
  ]
}
